Columns and labels:
[1] = target: CP-capped actin filament barbed end (BC) (rabbit | not stated) (UniProt P68135); assay: microfluidics-assisted single-filament fluorescence microscopy (kinetics of elongation changes); set-up #1: CP-capped barbed ends (BC) exposed to formin without PA for T_(expo) (BC+F→BCF), then PA alone (constants 'from BCF'); k′+F from a fit, not measured directly; F-buffer pH 7.8, 50 mM KCl, room temperature
[2] = target: CP-capped actin filament barbed end (BC) (rabbit | not stated) (UniProt P68135); assay: microfluidics-assisted single-filament fluorescence microscopy (kinetics of elongation changes); set-up #1: formin-bound barbed ends (BF) exposed to CP + PA (BF+C→BFC), then PA alone (constants 'from BFC'); unlabelled formin; F-buffer pH 7.8, 50 mM KCl, room temperature
[3] = target: actin filament free barbed end (B) (rabbit) (UniProt P68135); assay: microfluidics-assisted single-filament fluorescence microscopy (kinetics of elongation changes); set-up #1: filaments from surface-anchored spectrin–actin seeds, free barbed ends exposed to flows of CP or formin with profilin-actin (1 μM actin, 4 μM profilin); off-rates in PA alone; F-buffer pH 7.8, 50 mM KCl, room temperature; KD from the rate constants
[4] = target: CP-capped actin filament barbed end (BC) (rabbit | not stated) (UniProt P68135); assay: microfluidics-assisted single-filament fluorescence microscopy (kinetics of elongation changes); set-up #2: biotin-SNAP-mDia1 anchored on neutravidin coverslip, insertional barbed-end assembly; exposed to CP + unlabelled PA, then PA alone; detachment = BFC→BC+F, resumed growth = BFC→BF+C; F-buffer pH 7.8, 50 mM KCl, room temperature

| Substance | koff [1] | kon [1] | Kd [2] | koff [2] | kon [3] | Kd [4] |
| --- | --- | --- | --- | --- | --- | --- |
| FH1–FH2–DAD domain of human formin mDia1 (unlabelled) (from UniProt O60610 583-1272) (domain or fragment) | 0.0062 s⁻¹ | 1.6e+06 M⁻¹ s⁻¹ | 3 to 4 nM | 0.0042 s⁻¹ |  |  |
| GST–FH1(8P)–FH2–C of formin FMNL2 (from UniProt Q96PY5-3 1-1092) (domain or fragment) | 0.0094 s⁻¹ | 115000 M⁻¹ s⁻¹ |  |  | 1.54e+06 M⁻¹ s⁻¹ |  |
| biotinylated SNAP-mDia1(FH1–FH2–DAD)-His (from UniProt O60610 1-1272) (domain or fragment) |  |  |  |  |  | 4 nM |

Source: PMC4660058
